# Publication PMC3247260 (2011)
# Tests used:
# Assay in all cases: ITC
# [1] = molecular target: linear diUb (UniProt P0CG48 1-76; P0CG48 1-76)
# [2] = molecular target: K48-linked diUb (UniProt P0CG48 1-76, K48-linked (isopeptide linkage between the two Ub units))
# [3] = molecular target: ubiquitin (Ub) (UniProt P0CG48 1-76)
binder,measurement,setting,value
"tandem UBA domains of USP13 (USP13-UBA12, residues 652-776) (domain or fragment) DIDESSVMQLAEMGFPLEACRKAVYFTGNMGAEVAFNWIIVHMEEPDFAEPLTMPGYGGAASAGASVFGASGLDNQPPEEIVAIITSMGFQRNQAIQALRATNNNLERALDWIFSHPEFEEDSDF",Kd,[1],2.3 µM
same,Kd,[2],1.8 µM
same,Kd,[3],21 µM
